The source of these data is patent publication US4388232A, “Method of producing plasma fractions free of side-effects using fast-reacting antithrombin” (Immuno Aktiengesellschaft fur Chemisch Medizinische Produkte, priority 1979, dated 1983).

This data set has as its system NMRI mice. The data set is described as follows: LD50 test (toxicity of a preparation). The note with it: intravenous. The class given is in vivo, mouse (NMRI). The method, then: The LD50 -test serves for determining the toxicity of a preparation. LD50 is the dose at which 50% of the animals die under experimental conditions. The preparation is intravenously injected in at least three dosages into ten NMRI ([…]) mice each, having a minimum body weight of 20 g. After an observation time of 7 days the living animals per dosage group are counted. The LD50 is calculated in accordance with Wilson and Worcester, Proc. Nat. Acad. Sci. U.S.A. 29, 114 (1943).

With “Example 11: C1-esterase inhibitor, prepared with antithrombin III and heparin”, under “7 days observation”, the “tolerance in LD50 test” value is “excellently tolerated”. The LD50 (7 days observation, 5,300 = maximum injectable amount C1-esterase-inhibitor) is on record as > 5,300 units per kg body weight.
